Measurements reported in the supplement of paper PMC9112550, “Optimization of the antimicrobial peptide Bac7 by deep mutational scanning” (BMC Biology, 2022).

Test system: Escherichia coli TOP10
Experiment: shrunken log2 fold change of peptide-encoding DNA abundance (4.5 h post-induction vs induction); higher = less antimicrobial activity (less host growth inhibition)
Details: time post-induction: 4.5 h; library: site-saturation at positions 5, 18, 19, 20
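Note: peptides expressed intracellularly from a pBAD plasmid library in pooled LB shake-flask culture, induced with 0.3% L-arabinose, DNA abundance read by NGS, three biological replicates, DESeq2 with apeglm shrinkage.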

Row | Sequence | shrunken log2 fold change
1 | RRIRFRPPRLPRPRPRPLYEPRP | -0.664
2 | RRIRARPPRLPRPRPRPVLFPRP | 0.268
3 | RRIRARPPRLPRPRPRPSCSPRP | 0.0274
4 | RRIRWRPPRLPRPRPRPGIIPRP | -0.0357
5 | RRIRDRPPRLPRPRPRPQGLPRP | 0.0467
6 | RRIRTRPPRLPRPRPRPARTPRP | 0.381
7 | RRIRGRPPRLPRPRPRPMWYPRP | 0.293
8 | RRIRGRPPRLPRPRPRPRSCPRP | 0.759
9 | RRIRTRPPRLPRPRPRPTCFPRP | -0.35
10 | RRIRNRPPRLPRPRPRPPGKPRP | 0.484
11 | RRIRGRPPRLPRPRPRPPMEPRP | -0.0178
12 | RRIRFRPPRLPRPRPRPDDDPRP | 0.114
13 | RRIRMRPPRLPRPRPRPWVWPRP | 0.169
14 | RRIRMRPPRLPRPRPRPLARPRP | 0.659
15 | RRIRERPPRLPRPRPRPTYDPRP | -0.528
16 | RRIRCRPPRLPRPRPRPIMTPRP | -0.00708
17 | RRIRWRPPRLPRPRPRPLDMPRP | 0.14
18 | RRIRTRPPRLPRPRPRPVHEPRP | 0.247
19 | RRIRARPPRLPRPRPRPKTRPRP | 0.689
20 | RRIRQRPPRLPRPRPRPDACPRP | 0.0301
21 | RRIRDRPPRLPRPRPRPRWMPRP | -0.176
22 | RRIRHRPPRLPRPRPRPIFWPRP | -0.0136
23 | RRIRYRPPRLPRPRPRPGQSPRP | -0.108

Row | Sequence | shrunken log2 fold change
24 | RRIRKRPPRLPRPRPRPMRTPRP | 3.66
25 | RRIRARPPRLPRPRPRPRPMPRP | 0.771
26 | RRIRKRPPRLPRPRPRPFNMPRP | 0.0229
27 | RRIRARPPRLPRPRPRPKQQPRP | 0.569
28 | RRIRGRPPRLPRPRPRPEETPRP | 1.51
29 | RRIRHRPPRLPRPRPRPICDPRP | -0.174
30 | RRIRCRPPRLPRPRPRPPHHPRP | 0.352
31 | RRIRNRPPRLPRPRPRPKLDPRP | 0.00863
32 | RRIRERPPRLPRPRPRPNVSPRP | -0.00968
33 | RRIRYRPPRLPRPRPRPTNKPRP | -0.699
34 | RRIRLRPPRLPRPRPRPVTWPRP | -0.0276
35 | RRIRQRPPRLPRPRPRPGEVPRP | -0.102
36 | RRIRLRPPRLPRPRPRPLCAPRP | 0.11
37 | RRIRARPPRLPRPRPRPDEMPRP | 0.546
38 | RRIRDRPPRLPRPRPRPCVYPRP | -0.0478
39 | RRIRHRPPRLPRPRPRPRVVPRP | 0.072
40 | RRIRDRPPRLPRPRPRPKCWPRP | -0.00042
41 | RRIRNRPPRLPRPRPRPHYLPRP | -0.218
42 | RRIRHRPPRLPRPRPRPASQPRP | 0.045
43 | RRIRRRPPRLPRPRPRPEPTPRP | 0.543
44 | RRIRKRPPRLPRPRPRPMPNPRP | 0.399
45 | RRIRCRPPRLPRPRPRPCNSPRP | -0.0476
46 | RRIRARPPRLPRPRPRPKTQPRP | 0.0119

Row | Sequence | shrunken log2 fold change
47 | RRIRNRPPRLPRPRPRPIGCPRP | 0.0526
48 | RRIRVRPPRLPRPRPRPERRPRP | 0.13
49 | RRIRQRPPRLPRPRPRPGQIPRP | -0.226
50 | RRIRPRPPRLPRPRPRPQDPPRP | -0.135
51 | RRIRARPPRLPRPRPRPIRKPRP | 0.0897
52 | RRIRDRPPRLPRPRPRPLDTPRP | 0.0803
53 | RRIRCRPPRLPRPRPRPPIIPRP | -0.294
54 | RRIRHRPPRLPRPRPRPHTPPRP | -0.147
55 | RRIRARPPRLPRPRPRPCKPPRP | -0.331
56 | RRIRERPPRLPRPRPRPHPFPRP | -0.235
57 | RRIRYRPPRLPRPRPRPFMMPRP | -0.108
58 | RRIRERPPRLPRPRPRPMIAPRP | 0.121
59 | RRIRWRPPRLPRPRPRPSKFPRP | -0.0435
60 | RRIRCRPPRLPRPRPRPQTNPRP | -0.374
61 | RRIRGRPPRLPRPRPRPIGSPRP | 0.45
62 | RRIRPRPPRLPRPRPRPGQWPRP | 0.236
63 | RRIRNRPPRLPRPRPRPAWSPRP | 0.0515
64 | RRIRLRPPRLPRPRPRPSQVPRP | -0.573
65 | RRIRIRPPRLPRPRPRPEKYPRP | -0.423
66 | RRIRLRPPRLPRPRPRPVVNPRP | -0.0535
67 | RRIRVRPPRLPRPRPRPRIGPRP | 0.131
68 | RRIRDRPPRLPRPRPRPELRPRP | 0.621
69 | RRIRSRPPRLPRPRPRPWEEPRP | 0.0166

Row | Sequence | shrunken log2 fold change
70 | RRIRLRPPRLPRPRPRPPWEPRP | 0.192
71 | RRIRHRPPRLPRPRPRPRNPPRP | 0.0812
72 | RRIRWRPPRLPRPRPRPIRKPRP | 0.636
73 | RRIRARPPRLPRPRPRPDALPRP | 0.625
74 | RRIRDRPPRLPRPRPRPKHAPRP | 0.222
75 | RRIRSRPPRLPRPRPRPENFPRP | -0.0342
76 | RRIRGRPPRLPRPRPRPQWDPRP | 0.534
77 | RRIRTRPPRLPRPRPRPWRNPRP | -0.253
78 | RRIRYRPPRLPRPRPRPPEMPRP | 0.123
79 | RRIRKRPPRLPRPRPRPWVFPRP | 0.0817
80 | RRIRHRPPRLPRPRPRPTKLPRP | -0.255
81 | RRIRYRPPRLPRPRPRPGYGPRP | -0.541
82 | RRIRDRPPRLPRPRPRPMWMPRP | 0.149
83 | RRIRGRPPRLPRPRPRPFHNPRP | -0.388
84 | RRIRERPPRLPRPRPRPLYSPRP | -0.54
85 | RRIRERPPRLPRPRPRPGSPPRP | -0.0668
86 | RRIRDRPPRLPRPRPRPFEFPRP | 0.0215
87 | RRIRPRPPRLPRPRPRPCMIPRP | -0.692
88 | RRIRNRPPRLPRPRPRPQTKPRP | 0.173
89 | RRIRARPPRLPRPRPRPVVCPRP | 0.224
90 | RRIRKRPPRLPRPRPRPYDNPRP | 0.0185
91 | RRIRERPPRLPRPRPRPMSLPRP | 0.0379
